Laboratory results: patent publication US20130058911

Target: metmyoglobin
Sequence (P68082 2-154): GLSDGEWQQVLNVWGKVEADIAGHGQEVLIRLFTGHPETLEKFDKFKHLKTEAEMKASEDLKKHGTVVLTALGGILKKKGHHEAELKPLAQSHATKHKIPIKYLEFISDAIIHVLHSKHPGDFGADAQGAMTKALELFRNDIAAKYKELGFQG

Row | Protein | metmyoglobin reduction activity (change in A406 with NADH) | reactivity for myoglobin (relative to DLD)
1 | recombinant putative NAD(P)H nitroreductase (yodC) of Bacillus subtilis with C-terminal 6x His-tag (protein) MTNTLDVLKARASVKEYDTNAPISKEELTELLDLATKAPSAWNLQHWHFTVFHSDESKAELLPVAYNQKQIVESSAVVAILGDLKANENGEEVYAELASQGYITDEIKQTLLGQINGAYQSEQFARDSAFLNASLAAMQLMIAAKAKGYDTCAIGGFNKEQFQKQFDISERYVPVMLISIGKAVKPAHQSNRLPLSKVSTWLHHHHHH | the activity of yodC was confirmed | In comparison with DLD, yodC showed about 2.6 times and 22 times higher reactivity for potassium ferricyanide and myoglobin, respectively
2 | recombinant dihydrolipoyl dehydrogenase (DLD) without His tag (protein) MVVGDFPIETDTLVIGAGPGGYVAAIRAAQLGQKVTVVEKATLGGVCLNVGCIPSKALINAGHRYENAKHSDDMGITAENVTVDFTKVQEWKASVVNKLTGGVAGLLKGNKVDVVKGEAYFVDSNSVRVMDENSAQTYTFKNAIIATGSRPIELPNFKYSERVLNSTGALALKEIPKKLVVIGGGYIGTELGTAYANFGTELVILEGGDEILPGFEKQMSSLVTRRLKKKGNVEIHTNAMAKGVEERPDGVTVTFEVKGEEKTVDADYVLITVGRRPNTDELGLEQVGIEMTDRGIVKTDKQCRTNVPNIYAIGDIIEGPPLAHKASYEGKIAAEAIAGEPAEIDYLGIPAVVFSEPELASVGYTEAQAKEEGLDIVAAKFPFAANGRALSLNETDGFMKLITRKEDGLVIGAQIAGASASDMISELSLAIEGGMTAEDIAMTIHAHPTLGEITMEAAEVAIGSPIHIVK | Both of them showed 10 times or more higher metmyoglobin reduction activity than the empty vector | –
3 | recombinant malate dehydrogenase (MDH) of Bacillus subtilis with C-terminal 6x His-tag (protein) MGNTRKKVSVIGAGFTGATTAFLIAQKELADVVLVDIPQLENPTKGKALDMLEASPVQGFDAKITGTSNYEDTAGSDIVVITAGIARKPGMSRDDLVSTNEKIMRSVTQEIVKYSPDSIIVVLTNPVDAMTYAVYKESGFPKERVIGQSGVLDTARFRTFVAEELNLSVKDVTGFVLGGHGDDMVPLVRYSYAGGIPLETLIPKERIDAIVERTRKGGGEIVNLLGNGSAYYAPAASLTEMVEAILKDQRRVLPTIAYLEGEYGYEGIYLGVPTIVGGNGLEQIIELELTDYERAQLNKSVESVKNVMKVLSHHHHHH | the activity of MDH was not found | –
4 | recombinant dihydrolipoyl dehydrogenase (DLD) with His tag (protein) MVVGDFPIETDTLVIGAGPGGYVAAIRAAQLGQKVTVVEKATLGGVCLNVGCIPSKALINAGHRYENAKHSDDMGITAENVTVDFTKVQEWKASVVNKLTGGVAGLLKGNKVDVVKGEAYFVDSNSVRVMDENSAQTYTFKNAIIATGSRPIELPNFKYSERVLNSTGALALKEIPKKLVVIGGGYIGTELGTAYANFGTELVILEGGDEILPGFEKQMSSLVTRRLKKKGNVEIHTNAMAKGVEERPDGVTVTFEVKGEEKTVDADYVLITVGRRPNTDELGLEQVGIEMTDRGIVKTDKQCRTNVPNIYAIGDIIEGPPLAHKASYEGKIAAEAIAGEPAEIDYLGIPAVVFSEPELASVGYTEAQAKEEGLDIVAAKFPFAANGRALSLNETDGFMKLITRKEDGLVIGAQIAGASASDMISELSLAIEGGMTAEDIAMTIHAHPTLGEITMEAAEVAIGSPIHIVKHHHHHH | Both of them showed 10 times or more higher metmyoglobin reduction activity than the empty vector | –
